tested on: Escherichia coli TOP10; assay: shrunken log2 fold change of peptide-encoding DNA abundance (4.5 h post-induction vs induction); higher = less antimicrobial activity (less host growth inhibition); conditions: time post-induction: 4.5 h; library: site-saturation at positions 5, 18, 19, 20
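Note: peptides expressed intracellularly from a pBAD plasmid library in pooled LB shake-flask culture, induced with 0.3% L-arabinose, DNA abundance read by NGS, three biological replicates, DESeq2 with apeglm shrinkage.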

| Sequence | shrunken log2 fold change |
| --- | --- |
| RRIRTRPPRLPRPRPRPWSAPRP | -0.152 |
| RRIRIRPPRLPRPRPRPHWCPRP | 0.164 |
| RRIRSRPPRLPRPRPRPSDTPRP | -0.396 |
| RRIRGRPPRLPRPRPRPKQNPRP | 0.853 |
| RRIRMRPPRLPRPRPRPYPIPRP | 0.0414 |
| RRIRDRPPRLPRPRPRPGMMPRP | 0.0672 |
| RRIRVRPPRLPRPRPRPRTSPRP | 0.0612 |
| RRIRFRPPRLPRPRPRPFIIPRP | -0.816 |
| RRIRKRPPRLPRPRPRPFCNPRP | 0.128 |
| RRIRSRPPRLPRPRPRPLIGPRP | -0.118 |
| RRIRVRPPRLPRPRPRPQFYPRP | -0.806 |
| RRIRMRPPRLPRPRPRPGYPPRP | 0.0749 |
| RRIRERPPRLPRPRPRPWTAPRP | -0.478 |
| RRIRWRPPRLPRPRPRPKPKPRP | -0.0893 |
| RRIRYRPPRLPRPRPRPYPFPRP | -0.0218 |
| RRIRSRPPRLPRPRPRPVWDPRP | -0.143 |
| RRIRNRPPRLPRPRPRPGRAPRP | 0.177 |
| RRIRGRPPRLPRPRPRPQPPPRP | 0.998 |
| RRIRDRPPRLPRPRPRPVNFPRP | 0.0142 |
| RRIRSRPPRLPRPRPRPAYQPRP | -0.151 |
| RRIRTRPPRLPRPRPRPISWPRP | -0.0406 |
| RRIRERPPRLPRPRPRPRDTPRP | -0.0322 |
| RRIRWRPPRLPRPRPRPSRFPRP | -0.0148 |
| RRIRLRPPRLPRPRPRPVDQPRP | 0.194 |
| RRIRMRPPRLPRPRPRPAMFPRP | 0.388 |

| Sequence | shrunken log2 fold change |
| --- | --- |
| RRIRWRPPRLPRPRPRPAILPRP | 0.0915 |
| RRIRARPPRLPRPRPRPIPPPRP | 0.217 |
| RRIRQRPPRLPRPRPRPTQIPRP | 0.223 |
| RRIRERPPRLPRPRPRPHNQPRP | -0.325 |
| RRIRHRPPRLPRPRPRPRWMPRP | -0.209 |
| RRIRSRPPRLPRPRPRPMPSPRP | -0.194 |
| RRIRKRPPRLPRPRPRPITLPRP | -0.0554 |
| RRIRARPPRLPRPRPRPRRSPRP | 0.743 |
| RRIRNRPPRLPRPRPRPGMPPRP | -0.107 |
| RRIRSRPPRLPRPRPRPGVQPRP | -0.0497 |
| RRIRYRPPRLPRPRPRPWLKPRP | -0.0198 |
| RRIRERPPRLPRPRPRPTKEPRP | -0.465 |
| RRIRVRPPRLPRPRPRPECTPRP | 0.464 |
| RRIRIRPPRLPRPRPRPLCHPRP | -0.626 |
| RRIRFRPPRLPRPRPRPFDAPRP | -0.0477 |
| RRIRMRPPRLPRPRPRPSPEPRP | 1.12 |
| RRIRERPPRLPRPRPRPFGLPRP | -0.0181 |
| RRIRKRPPRLPRPRPRPAMCPRP | 0.059 |
| RRIRSRPPRLPRPRPRPGYKPRP | -0.084 |
| RRIRWRPPRLPRPRPRPEGAPRP | 1.13 |
| RRIRKRPPRLPRPRPRPWYDPRP | -0.153 |
| RRIRLRPPRLPRPRPRPWADPRP | -0.118 |
| RRIRMRPPRLPRPRPRPDALPRP | 0.438 |
| RRIRFRPPRLPRPRPRPLPSPRP | 0.0283 |
| RRIRWRPPRLPRPRPRPWEQPRP | 0.0277 |

| Sequence | shrunken log2 fold change |
| --- | --- |
| RRIRFRPPRLPRPRPRPVMMPRP | -0.43 |
| RRIRHRPPRLPRPRPRPDMDPRP | 0.0205 |
| RRIRWRPPRLPRPRPRPFGHPRP | -0.102 |
| RRIRMRPPRLPRPRPRPWPFPRP | 0.0942 |
| RRIRPRPPRLPRPRPRPELFPRP | 0.25 |
| RRIRDRPPRLPRPRPRPQIRPRP | -0.222 |
| RRIRPRPPRLPRPRPRPSSVPRP | 0.0854 |
| RRIRWRPPRLPRPRPRPNMQPRP | -0.0262 |
| RRIRFRPPRLPRPRPRPICWPRP | -0.134 |
| RRIRKRPPRLPRPRPRPWHPPRP | 0.143 |
| RRIRTRPPRLPRPRPRPYNLPRP | -0.336 |
| RRIRQRPPRLPRPRPRPRATPRP | 0.138 |
| RRIRFRPPRLPRPRPRPVQWPRP | 0.184 |
| RRIRQRPPRLPRPRPRPLHRPRP | -0.11 |
| RRIRLRPPRLPRPRPRPDPYPRP | 0.0541 |
| RRIRSRPPRLPRPRPRPGIPPRP | -0.00461 |
| RRIRFRPPRLPRPRPRPRQTPRP | -0.0912 |
| RRIRIRPPRLPRPRPRPTRHPRP | 0.0172 |
| RRIRPRPPRLPRPRPRPCQNPRP | -0.0169 |
| RRIRFRPPRLPRPRPRPWNKPRP | -0.722 |
| RRIRWRPPRLPRPRPRPFTLPRP | 3.06 |
| RRIRTRPPRLPRPRPRPRINPRP | -0.506 |
| RRIRPRPPRLPRPRPRPRTMPRP | 0.276 |
| RRIRWRPPRLPRPRPRPIYYPRP | -0.488 |
| RRIRSRPPRLPRPRPRPHILPRP | -0.0674 |
